The DeepSol protein solubility set

Experiment: soluble on expression in E. coli; label from the status in PepcDB or PDB records

Sequence	soluble on expression in E. coli
MSLDPFSIVQDFRSIAGEEALEIAESGEENDNEQFQNWELEAKFWDLVGLLVEYRTSETVDKDINVHSYNSNVVFQKQLLQSNKGIYEIWLIKSWLEANIGIPERPSSLCTTKWSSSMIAGTVKSMDSDSILRDPTTNLQPDDRQNDHAFFVYAFRLLLAGQFEKLTEECEFTDNLTLNLILRGMESYVDPNVDTDMTDEYASQQGIKKHALWRRSVYALSQDPLLDPYEAAIYTYLSGDSPTNLRIDGLDWETELLIYVNQIWNVTMENYLIEHGRVDNDELITDMDTACPSLSQVLNILAAKYPDESEHPIRVLTASVLLNTIEPVMKSSTDMLLDVIKGRDEDNALFNESYLLRILTNLTIFLDIVSPDTIDISNKSKLLTSYISLLSYYGLYDVIPVFVSFLSQEEIVETYSFFLTNLIDPNLRQKQMEISKYLGLPIANILRRTAQRIFEETDQYYIVDSDIELTNEVSEVDQRLMNGVEWLIENGLYTDSIDTIIALSRRFLINGKVKALELFVDNHDVPNLLKEYQLERLSSQEEDHDLKTTELLQYTSLLSTFKKQEEWVKSSQLFNTESNLRSLIKQFKGFSNTIIKLVTTFLVDLIDNEEVNDSDVLYEIRALYTPFLIMELHNNLISASENLKVSTFVQEAIDLSILVANETDKIYLLFQSNGKLTTYLQMVAKASALFGREGHHHHHH	not soluble
MSLDREKANKNLLKILEAINGNSLVLFKSFEDLDSFYKYLKREITKTNIKNKNIHVYEQGMDGKEAKELKERFEKIGGILLATGRFAEGVDIPGEALVGVVIDSLPFPVPTPLILREQKILEERFKIRGVRDAHWRAFLMTSFDRMARTLVQMIGRLIRTENDYGVVVIQDKRFADWVGRVMREKGEGHHHHHH	soluble
MSLDRILTFDCYGTLIDTKPVFDAISNIAKNNILNSKDAVNIYVNYEDRLMYGETYIPYDKLIKQVLEYCDMELVTNVFSKSYDEIISVHKRLKPFKEVVESLEKIHKKGYELALMSNSVHDIIDYNLDALGNVFNNVFLSEDIHAYKPQLKFFKYVEERLELKQKKHCHIAKGYWWDIVPCSKLGWRKIWVNRENKKGNKCHEPYEEVHTLDEVINLIEGHHHHHH	soluble
MSLDRPRCCLRGKECSINRFQQVESRWGYSGTSDRIRFSVNKRIFVVGFGLYGSIHGPTDYQVNIQIIHTDSNTVLGQNDTGFSCDGSASTFRVMFKEPVEVLPNVNYTACATLKGPDSHYGTKGMRKVTHESPTTGAKTCFTFCYAAGNNNGTSVEDGQIPEVIFYTEGHHHHHH	soluble
MSLDRSNTVELHAAGAQSAQGARPDQEDEYIILTPGGSPNEIGDSIAFFAVFDGHGTGIVSNHAKEHIPLLLFESDEFRSGNYERAMQAAIDKEDELLLQGFREGQNFFATSGSTASLALVDMKNGVLVVGNIGDSHILMAERDPENGQVKSIERLTTSHKPESADEKARIEKAGGHVHSHHDISRIGSLNMSRALGDLQYKTPLISAAAAPKTEGQKFACAPDPQNVSSQDGAQAGTGRDDFITVEMSFRRIDLHKEKQYLLALTTDGVTNALDDGKIMNGIAEMFNTGSKADEVARKVVDQAASTEYADNATCVTVFLNGTEARLAEGHHHHHH	soluble
MSLDRTLRGRVEGKVVLITGATSGIGKATARKLAEAGAKVLTIARDEHKIAETQAEFAELGLTLQVYQGDLADLSQGEAITRQIVAEHGGVDILINNAGRSIRRAIEDSFDRFHDLERTMQLNYFGTLKVIMGLLPTMIEKKKGHIINISSIGVLTNAPRFSAYVASKSALDAWVRTAASEFADKGVNFSIINMPLVKTPMVAPTKVYEQVPMMTPEEAADLVCDTIINKHVRLATRLGVFGQVIHALAPRVAQVIMNTSEGHHHHHH	not soluble
MSLDSSPHSQVNDPLESFNRQMWTINYDYLDPYVVRPVSLFYVGYVPKPVRSGIANFLSNLDEPASMVNNLLMGNGTKAVDHFNRFWINTSFGLLGLIDIASEAGIKKYDDKAFSDAVGHYGVGNGPYLMVPGYGPYTVREVTDVVDGMYFPLAYLNIWAGVGKWALEGMETRAALVSQEALLQDSPDPYSLARDAYLQRQAFKAEIQVDDYDPEEEEYLDEYLNEGEGHHHHHH	soluble
MSLDSWSRNFELLINSRTPLIWIRTKEEERLYKVIDKSCKKLNIKRFVSWDCVNGIKGVLNENGKFSNNPMGVLNWIKAQTSEIPTILLVRDFHKFYDDPSISRTIKELSSSLRETNNNLILSSHILPSSEELDDLITILNLPLPDLSELTALIKKIAFNTDSDLSEQDLNELAIASSGLSEIKVKQVTAKALAQRGKISKFDIKDMLEEKKQVIARSEGHHHHHH	soluble
MSLDTTGITPTSIRIGSTSPQSGPVSAYGVQARCQAAYFKMINDRGGIAGRKIDFIYYDDAFNPAKTVEQTRKLVESDEVALLFSNLGTATNSAIVKYANAKKIPHLFLSVNGDKWSDYKAHPWSIGFAPSARTEAAIFVKHMLAEKPDAKFAVLYQNDDFGKDFVLGAKDVLGERESRQLVTISHETSDPTIDSQILQLRAAAPDALISGTTAKFTAQAIRKVAETRWQVRHYITGGSSSYAGTIGPAGPENAVGVISSAYLKDVADPAWKDDQGIKDFLAFMQSYFPEGNKDDFYNLYAYTVASALVKVLTQCGDGWTRENIMAQATNLKDVELPTLLPGIRVNTSPTDYRPLTQVQLQKWDGKAWVRFGDVLGAEGHHHHHH	soluble
MSLDTVVKVGFAAPLTGPNANYGKDLENGVKMALDDAKAQGVKINGQPVTFQLVAEDDQADPRIGVQVAQKLIDEGVSVVVGHFNSGTTIPASNLYEKAGLPDIDPAATNPTISSRGFKNMFMVISSDAQNAGTAGAYAVETTKAKRIAVIDDRTAFGQGEADEFVKAVKAHGGDIIDREYTTNQATDFKTQLTNLKAKNPDLIFVGALNPQAAGIMKQMNQLGIKAQYVGGGGVKDIDFIKLAGDVSEGAMAWEYGRPLDSTPVGAKFAERFKQKFGEDVLSYAPFGYDAAWAAIKAMQAANSTKPDDYRSKLQSISFEGITGHIEFNANGSLKNGSSTVYQVKNGQWVTVKTVSGEGHHHHHH	soluble
MSLDVTAKYELIGLMAYPIRHSLSPEMQNKALEKAGLPFTYMAFEVDNDSFPGAIEGLKALKMRGTGVSMPNKQLACEYVDELTPAAKLVGAINTIVNDDGYLRGYNTDGTGHIRAIKESGFDIKGKTMVLLGAGGASTAIGAQGAIEGLKEIKLFNRRDEFFDKALAFAQRVNENTDCVVTVTDLADQQAFAEALASADILTNGTKVGMKPLENESLVNDISLLHPGLLVTECVYNPHMTKLLQQAQQAGCKTIDGYGMLLWQGAEQFTLWTGKDFPLEYVKQVMGFGAEGGSHHHHHH	soluble
MSLDWNRLKPTINQKVSAELNRPFAIRGDLGVVWERQKQETGWRSWVPWPHVHAEDIILGNPPDIPEVTMVHLPRVEATLAPLALLTKTVWLPWIKLEKPDARLIRLSEKNNNWTFNLANDDNKDANAKPSAWSFRLDNILFDQGRIAIDDKVSKADLEIFVDPLGKPLPFSEVTGSKGKADKEKVGDYVFGLKAQGRYNGEPLTGTGKIGGMLALRGEGTPFPVQADFRSGNTRVAFDGVVNDPMKMGGVDLRLKFSGDSLGDLYELTGVLLPDTPPFETDGRLVAKIDTEKSSVFDYRGFNGRIGDSDIHGSLVYTTGKPRPKLEGDVESRQLRLADLGPLIGVDSGKGAEKSKRSEQKKGEKSVQPAGKVLPYDRFETDKWDVMDADVRFKGRRIEHGSSLPISDLSTHIILKNADLRLQPLKFGIAGGSIAANIHLEGDKKPMQGRADIQARRLKLKELMPDVELMQKTLGEMNGDAELRGSGNSVAALLGNSNGNLKLLMNDGLVSRNLMEIVGLNVGNYIVGAIFGDDEVRVNCAAANLNIANGVARPQIFAFDTENALINVTGTASFASEQLDLTIDPESKGIRIITLRSPLYVRGTFKNPQAGVKAGPLIARGAVAAALATLVTPAAALLALISPSEGEANQCRTILSQMKKEGHHHHHH	soluble
MSLEAVIFDMDGVLMDTEPLYFEAYRRVAESYGKPYTEDLHRRIMGVPEREGLPILMEALEIKDSLENFKKRVHEEKKRVFSELLKENPGVREALEFVKSKRIKLALATSTPQREALERLRRLDLEKYFDVMVFGDQVKNGKPDPEIYLLVLERLNVVPEKVVVFEDSKSGVEAAKSAGIERIYGVVHSLNDGKALLEAGAVALVKPEEILNVLKEVLEGHHHHHH	soluble
MSLEDGYKVEVGKNAYLPCSYTLPTSGTLVPMCWGKGFCPWSQCTNELLRTDERNVTYQKSSRYQLKGDLNKGDVSLIIKNVTLDDHGTYCCRIQFPGLMNDKKLELKLDIKAALVPR	soluble
